Results on one substance are retold here after patent US4014860A, “Plasminostreptin (enzyme inhibitor) and method for producing it from streptomyces” (Takeda Chemical Industries, Ltd., priority 1972, dated 1977).

Data set [1] in a line: Stability (heat treatment, remaining activity). The class given is physicochemical. To be noted: 30 minutes' treatment at pH 4-9 and at 100° C. The protocol: More than 50 percent of the original activity remains intact even after a 30 minutes' treatment at pH 4-9 and at 100° C.
In data set [2] the test system is Fusarium alkaline protease. Briefly: Fusarium alkaline protease-casein system. The class given is biochemical. The settings on record: 50% inhibition of 4 μg of Fusarium alkaline protease; casein substrate, pH 10.5. The protocol:
4. fusarium crystalline alkaline protease (U.S.P. No. 3652399)
(§1) Into a test tube are poured 1 ml of a casein solution [2%, buffer (3)], 0.5 ml of buffer (3), and 0.4 ml of a plasminostreptin solution of varying concentration and after the addition of 0.1 ml of either a Fusarium alkaline protease solution [40 μg/ml, buffer (3)] or Nagarse solution [100 μg/ml, buffer (3)], the mixture is blended well and allowed to stand under conditions similar to those described for the plasmin-casein system. Thereafter, also in the same manner as described above, the amount of plasminostreptin required for a 50% inhibition of the activity of 4 μg of Fusarium alkaline protease and 10 μg of Nagarse in the absence of plasminostreptin is determined, respectively, and indicated in units of ID50.

Data set [3] addresses T1, plasmin-UK (Homo sapiens, UniProt P00747).
T1 construct: purchased Midorijuji
The experiment in a line: Plasmin-casein system. In kind it is biochemical. To be noted: 50% inhibition of 0.4 casein units of plasmin-UK; casein substrate. How it is done: (§2) 2. Plasmin - UK (Midorijuji, urokinase-activated plasmin)
3. plasmin-casein system: Into a test tube are poured 1 ml of casein solution [4%, buffer (2)], 0.5 ml of buffer (2) and 0.3 ml of a plasminostreptin solution of varying concentrations, followed by the addition of 0.2 ml of plasmin-UK solution [2 casein units/ml, buffer (2)]. The mixture is blended well and allowed to stand at 37° C for 20 minutes. The reaction is terminated by the addition of 2 ml of 1.7 M perchloric acid and the system is allowed to stand at room temperature for another 1 hour. The reaction mixture is filtered through a filter paper and the absorbance of the resulting filtrate at 280 mμ is measured.
The plasmin-inhibiting activity of plasminostreptin is determined and indicated as follows.
Thus, the amount of plasminostreptin is determined which is required to effect a 50% inhibition of the activity of 0.4 casein units of plasmin-UK in the absence of plasminostreptin and is shown in units of ID50.
Target sequence in this assay (P00747 581-810 limits assumed): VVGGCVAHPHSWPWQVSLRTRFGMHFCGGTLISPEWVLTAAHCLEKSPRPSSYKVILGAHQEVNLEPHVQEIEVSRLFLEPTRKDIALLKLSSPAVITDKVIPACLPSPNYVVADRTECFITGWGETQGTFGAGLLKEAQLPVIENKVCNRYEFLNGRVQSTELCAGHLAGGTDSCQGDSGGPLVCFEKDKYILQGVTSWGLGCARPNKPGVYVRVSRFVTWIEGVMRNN
Target sequence in this assay (P00747 97-580 partner limits assumed): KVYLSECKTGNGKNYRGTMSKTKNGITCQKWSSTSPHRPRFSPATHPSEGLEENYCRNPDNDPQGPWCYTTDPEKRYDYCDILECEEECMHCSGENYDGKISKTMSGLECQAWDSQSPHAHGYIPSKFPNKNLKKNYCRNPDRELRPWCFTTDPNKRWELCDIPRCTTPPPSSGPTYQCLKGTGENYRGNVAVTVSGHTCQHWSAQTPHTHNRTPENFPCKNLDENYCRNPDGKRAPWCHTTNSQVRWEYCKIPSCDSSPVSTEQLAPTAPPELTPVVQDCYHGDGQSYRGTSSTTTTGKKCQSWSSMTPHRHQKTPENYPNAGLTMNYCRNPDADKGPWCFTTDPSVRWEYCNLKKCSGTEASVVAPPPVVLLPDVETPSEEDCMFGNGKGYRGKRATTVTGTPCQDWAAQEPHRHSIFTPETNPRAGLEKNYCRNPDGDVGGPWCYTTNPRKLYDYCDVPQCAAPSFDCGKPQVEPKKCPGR

A further data set can be described thus: Solubility. In kind it is physicochemical.
Data set [4] deals with T1, plasmin-UK. Briefly: Plasmin activity of rat blood plasma before and after intravenous administration. The class given is in vivo. The settings on record: rats, 0.8 mg intravenous, 1 hour after administration; result in words. The protocol:
From each of five rats (male, SD, 7 weeks old), blood samples are taken before the administration of plasminostreptin and also 1 hour after the intravenous administration of 0.8 mg plasminostreptin. The plasma is separated from each of the blood samples and the abovementioned plasmin-UK solution is added in each plasma sample to various concentrations.
Immediately thereafter, the activity of plasmin in each plasma sample is determined using casein as substrate. The plasmin activity of blood plasma samples from each rat before and after the administration of plasminostreptin are compared.
Target sequence in this assay (P00747 581-810 limits assumed): as the sequence (P00747 581-810 limits assumed) above
Target sequence in this assay (P00747 97-580 limits assumed): as the sequence (P00747 97-580 partner limits assumed) above

Data set [5] addresses T1, plasmin-UK. The experiment in a line: Plasmin-fibrin system (determination of clot lysis time). In kind it is biochemical. To be noted: 50% inhibition of 0.08 casein units of plasmin-UK. The protocol: as §2
Target sequence in this assay (P00747 581-810 limits assumed): as the sequence (P00747 581-810 limits assumed) above
Target sequence in this assay (P00747 97-580 partner limits assumed): as the sequence (P00747 97-580 partner limits assumed) above
(2) Plasmin-fibrin system (determination of clot lysis time): Into a small test tube are poured 0.4 ml of a fibrinogen solution (0.25%, buffer (1)), 0.3 ml of buffer (1) and 0.1 ml of plasminostreptin solution of varying concentrations, followed by the addition of 0.1 ml of a plasmin-UK solution [0.8 casein units/ml, buffer (1)]. The mixture in blended well and immediately thereafter, 0.1 ml of a thrombin solution (50 J. P. units/ml, 0.145 M sodium chloride) is added. The resulting gel is allowed to stand at 37° C and the time necessary to lyse the clot is measured. The plasmin-inhibiting activity of plasminostreptin is determined by the procedure set forth in Biochimica Biophysica Acta. 214, 411 (1970). Thus, the amount of plasminostreptin which is required for a 50% inhibition of the activity of 0.08 casein units of plasmin-UK, which occurs in the reaction mixture, is determined from the concentration of plasminostreptin which will double the clot lysis time in the absence of plasminostreptin, and the above amount is indicated in units of ID50.

Another data set deals with mice. Briefly: Acute toxicity tests in mice. The class given is in vivo. The text has this:
The toxicity of plasminostreptin is extremely low and its LD50 values as determined by acute toxicity tests in mice are more than 5 g/kg orally, more than 5 g/kg intraperitoneally and 2 to 3 g/kg, intravenously.

The target in data set [6] is T2, kallikrein (Beyer, Depot - Padutin) (Sus scrofa, UniProt P00752).
T2 construct: purchased Beyer (so in the source); Bayer) Depot - Padutin
T2 sequence (P00752 8-246): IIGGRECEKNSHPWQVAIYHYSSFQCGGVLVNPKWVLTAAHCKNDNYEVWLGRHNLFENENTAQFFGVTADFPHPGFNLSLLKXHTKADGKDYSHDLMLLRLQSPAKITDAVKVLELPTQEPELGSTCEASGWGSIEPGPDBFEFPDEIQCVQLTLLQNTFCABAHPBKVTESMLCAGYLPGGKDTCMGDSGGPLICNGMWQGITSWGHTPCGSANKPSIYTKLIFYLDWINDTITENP
The experiment in a line: Kallikrein esterase activity against benzoylarginine ethyl ester. In kind it is biochemical. The settings on record: result in words.

The next data set concerns the target T3, Nagarse (Bacillus amyloliquefaciens, UniProt P00782).
T3 construct: purchased Nagase Sangyo
T3 sequence (P00782 108-382): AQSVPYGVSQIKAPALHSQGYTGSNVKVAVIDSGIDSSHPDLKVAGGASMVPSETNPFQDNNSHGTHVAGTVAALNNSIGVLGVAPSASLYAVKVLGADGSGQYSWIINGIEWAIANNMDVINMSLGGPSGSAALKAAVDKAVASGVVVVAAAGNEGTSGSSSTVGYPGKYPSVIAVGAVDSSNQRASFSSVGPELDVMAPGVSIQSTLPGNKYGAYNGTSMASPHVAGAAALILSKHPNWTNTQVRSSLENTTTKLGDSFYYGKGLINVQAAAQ
The experiment in a line: Nagarse-casein system. The class given is biochemical. To be noted: 50% inhibition of 10 μg of Nagarse; casein substrate, pH 10.5. How it is done: 5. Nagarse(crystalline protease, Nagase Sangyo)
as §1

For another data set, the target named is T4, Trypsin (Bos taurus, UniProt P00760).
T4 construct: purchased Sigma Type III
T4 sequence (P00760 24-246): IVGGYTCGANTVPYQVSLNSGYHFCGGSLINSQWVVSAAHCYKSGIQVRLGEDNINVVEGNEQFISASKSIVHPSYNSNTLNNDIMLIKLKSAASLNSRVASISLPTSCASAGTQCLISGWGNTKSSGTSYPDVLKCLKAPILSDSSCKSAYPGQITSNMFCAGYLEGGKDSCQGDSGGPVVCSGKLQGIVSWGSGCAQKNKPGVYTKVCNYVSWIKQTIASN
The experiment in a line: Trypsin-casein system. The settings on record: 50% inhibition of 10 μg of trypsin; casein substrate. The class given is biochemical. How it is done: 3. Trypsin (Sigma, crystalline, Type III)
Into a test tube are poured 1 ml of a casein solution [2%, buffer (2)], 0.5 ml of buffer (2) and 0.3 ml of a plasminostreptin solution of varying concentrations and after the addition of 0.2 ml of a trypsin solution [50 μg/ml, buffer(2)], the mixture is blended well and allowed to stand under conditions similar to those described for the plasmin-casein system. Thereafter, also in the same manner as described above, the amount of plasminostreptin required for a 50% inhibition of the activity of 10 μg of trypsin in the absence of plasminostreptin is determined and indicated in units of ID50.

The target of the next data set is T5, Plasmin-SK (Homo sapiens, UniProt P00747).
T5 construct: made in house
T5 sequence (P00747 581-810 limits assumed): as the sequence (P00747 581-810 limits assumed) above
T5 sequence (P00747 97-580 partner limits assumed): as the sequence (P00747 97-580 partner limits assumed) above
Briefly: Plasmin-fibrin system (fibrin plate method). The class given is biochemical. The protocol:
1. Plasmin-SK: The euglobulin fraction obtained from human blood plasma is dissolved in buffer (1) which is described below and then, activated with streptokinase (Lederle) [Annual Report of Takeda Research Laboratories, 28, 140 (1969)].
1. Plasmin-fibrin system (fibrin plate method): Ten ml of a fibrinogen solution (1%, buffer (1)) is placed in a petri dish (9 cm in diameter) and gelled by the addition of 0.2 ml of thrombin [50 J. P. units (Japanese Pharmacopeia units)/ml, 0.145 M sodium chloride]. The gel is allowed to stand at 30° C for 30 minutes to prepare a fibrin plate. Meanwhile, paper discs (8mm in diameter, water-absorbing capacity: 0.025 ml) are dipped in a plasminostreptin solution of varying concentrations and allowed to dry on a filter paper in the air.
Then, 0.015 ml of a plasmin-SK solution is dropped onto each of the discs, which is placed on the above fibrin plate. After the system is allowed to stand at 37° C for 5 to 10 hours, the formation of lyzed zone in evaluated. The plasmin-inhibiting activity of plasminostreptin is indicated as the concentration of plasminostreptin solution required for a complete inhibition of fibrinolysis.

Data set [7] is described as follows: Isoelectric point by isoelectric focussing method. The class given is physicochemical. An excerpt: 6. Isoelectric point: about 6.3 as determined by the isoelectric focussing method Acta Chemica Scandinavica,20, 820 (1966)

For plasminostreptin, the “original activity remaining intact” value in data set [1] is given as “More than 50%”. Further, the ID50 in [2] is < 6 µg; at plasmin-UK [3], < 10 µg; on plasmin-UK [5], < 10 µg; at Nagarse, < 5 µg; at Trypsin, < 5 µg. Moreover, the “Solubility in aqueous solution” value in the data set “Solubility” (ammonium sulfate at 60% saturation) is “almost completely precipitated”; in “Solubility” (neighborhood of pH 6) it was “solubility drops”. Besides, the Solubility entry in the data set “Solubility” (glacial acetic acid, alcohols, acetone, chloroform, ether, hexane and other organic solvents) is “only sparingly soluble”; in the data set “Solubility” (pyridine) it was “slightly soluble”; in the data set “Solubility” (water and aqueous ammonia), “Soluble”. Also, the “plasmin activity of blood plasma after administration” value at plasmin-UK [4] is given as “significantly inhibited”. Besides, the LD50 result in the data set with mice (intraperitoneally) and in the data set with mice (orally) was “more than 5 g/kg” each time. Further, the “Inhibition of the activity of kallikrein” value in [6] is “can hardly be detected”. The “concentration for a complete inhibition of fibrinolysis” value at Plasmin-SK (fibrin plate method, crystalline product of Example 1) came to 20 µg/mL. Moreover, on Plasmin-SK (fibrin plate, complete inhibition of fibrinolysis, Table 3), the “Concentration for complete inhibition” value is < 30 µg/mL. Also, the Isoelectric point result in data set [7] is given as “about 6.3”.
